From article PMC6801647, “Crystal Structure of Kluyveromyces lactis Glucokinase (KlGlk1)” (International Journal of Molecular Sciences, 2019) come the findings set out here.

Data set [1] concerns the target Kluyveromyces lactis glucokinase (KlGlk1) (Kluyveromyces lactis) (UniProt Q6CUZ3). Nature of the data set: SEC-MALS; size-exclusion chromatography (Superdex 200 Increase 10/300 GL) coupled to right-angle/low-angle light scattering (RALS/LALS) and refractive index, OMNISEC REVEAL; 50 mM Tris pH 7.8, 200 mM NaCl, 5 mM beta-ME.
Substrate in data set [2]: Nc1ncnc2c1ncn2[C@@H]1O[C@H](COP(=O)(O)OP(=O)(O)OP(=O)(O)O)[C@@H](O)[C@H]1O
Nature of the data set: G6PD-coupled assay, fit over ATP range preceding substrate inhibition. Format: biochemical, Kluyveromyces lactis. Conditions: 0.5 mM glucose, 5 mM MgCl2, 50 mM KCl, 250 mM sucrose, 20 mM Tris-HCl pH 7.4, 37 °C, Hill coefficient 1.97 at low ATP, substrate inhibition from 0.25 mM ATP.

As to “Kluyveromyces lactis glucokinase (KlGlk1) (from UniProt Q6CUZ3 49-481) (enzyme)”, the stoichiometry N in data set [1] came to 2.

B1: KlGlk1 (Kluyveromyces lactis NRRL Y-1140) (protein)
chain: SDPKLTKAVDSICDQFIVTKSKISQLTEYFIDCMEKGLEPCESDISQNKGLPMIPTFVTDKPSGQEHGVTMLAADLGGTNFRVCSVELLGNHEFKIEQEKSKIPTFFFQDDHHVTSKDLFQHMALITHQFLTKHHKDVIQDYKWKMGFTFSYPVDQTSLSSGKLIRWTKGFKIGDTVGQDVVQLFQQELNDIGLSNVHVVALTNDTTGTLLARCYASSDAARAINEPVIGCIFGTGTNGCYMEKLENIHKLDPASREELLSQGKTHMCINTEWGSFDNELNHLPTTSYDIKIDQQFSTNPGFHLFEKRVSGLYLGEILRNILLDLEKQELFDLKESVLKNNPFILTTETLSHIEIDTVENDLQDTRDALLKAADLETTFEERVLIQKLVRAISRRAAFLAAVPIAAILIKTNALNQSYHCQVEVGCDGSVVEHYPGFRSMMRHALALSPIGPEGERDVHLRISKDGSGVGAALCALHANY
notes: codon-optimized synthetic gene in pET24d, E. coli BL21 (DE3); N-terminal His-tag removed with TEV protease; dimer in solution (100 kDa apparent); crystal model residues 2-481
On to B1, for which, in data set [2], the Km came to 150 µM and the turnover number (kcat) was found to be 400 s⁻¹.
